Data published in US20190367636A1 (Bayer, published 2019).

What was measured:
[1] = biological target: T1, activated human coagulation factor XI (hFXIa) (human, UniProt P03951 19-625, limits assumed); test: cell-based or functional assay
[2] = biological target: T1, activated human coagulation factor XI …; test: ELISA, lyophilized formulation after 36 months at 2-8 C, relative to BAY 1213790 reference standard
[3] = biological target: T1, activated human coagulation factor XI …; test: SPR (Biacore), binding of lyophilized formulation test sample at t0 to human FXIa, relative to BAY 1213790 reference standard
Method: The binding of the BAY 1213790 test sample and of the BAY 1213790 reference standard to human factor XIa (FXIa) antigen is determined by surface plasmon resonance spectroscopy (SPR, Biacore). The binding affinity of the test sample is compared to the BAY 1213790 reference standard.

Activity relative to reference (Bioassay), t0 [1]: 104%
Activity relative to reference (Bioassay), t = 36 months at 2-8 C [1]: 101%
Activity relative to reference (ELISA) [2]: 104%
Activity relative to reference (Biacore) [3]: 108%
B1: BAY1213790 (antibody, human IgG1, kappa, V domains shown)
VH: EVQLLESGGGLVQPGGSLRLSCAASGFTFSQYGMDWVRQAPGKGLEWVSGIGPSGGSTVYADSVKGRFTISRDNSKNTLYLQMNSLRAEDTAVYYCTRGGPYYYYGMDVWGQGTTVTVSS
VL: DIQMTQSPSSLSASVGDRVTITCQASQDISNYLNWYQQKPGKAPKLLIYDASNLETGVPSRFSGSGSGTDFTFTISSLQPEDIATYYCQQADSFPVTFGGGTKVEIKR
notes: Human monoclonal IgG; also called anti-FXIa antibody; anti-hFXIa monoclonal antibody
